Literature values as cited in PMC11264262.

Tests used:
Glu73 = Glu73 (UniProt position 107, IFSNREGKLPG); details: folded protein
His200 = His200 (UniProt position 200, RKGTVHDTALT)

| Substance | pKa (Glu73) | pKa (His200) |
| --- | --- | --- |
| Barnase (Bacillus amyloliquefaciens (inferred; organism not stated in the article)) | 2.1 |  |
| Homoprotocatechuate 2,3-dioxygenase (HPCD) (Brevibacterium fuscum (inferred; organism not stated in the article)) |  | ca. 7.65 |
